Assay results published in patent publication US10835618 (UNIVERSITY OF NOTTINGHAM, dated 2020).

Columns and labels:
BxPC3 = target: T1, BxPC3; test: flow cytometry titration on BxPC3 cells, geometric mean against antibody concentration [panel FACS - BxPC3]
T1 construct: Group of unnamed glycoproteins on whole cells; also called cell surface of BxPC3 cells

LS180 = target: T2, LS180; test: flow cytometry titration on LS180 cells, geometric mean against antibody concentration [panel FACS - LS180]
T2 construct: Group of unnamed glycoproteins on whole cells; also called cell surface of LS180 cells

HCT-15 = target: T3, HCT-15; test: flow cytometry titration on HCT-15 cells, geometric mean against antibody concentration [panel FACS - HCT-15]
T3 construct: Group of unnamed glycoproteins on whole cells; also called cell surface of HCT-15 cells

Colo205 [1] = target: T4, Colo205; test: flow cytometry titration on Colo205 cells, geometric mean against antibody concentration [panel FACS - Colo205]
T4 construct: Group of unnamed glycoproteins on whole cells; also called cell surface of Colo205 cells

Colo205 [2] = target: T4, Colo205; test: flow cytometry titration on Colo205 cells, Gm value against concentration

Kd (BxPC3) [nM]	Kd (LS180) [nM]	Kd (HCT-15) [nM]	Kd (Colo205 [1]) [nM]	Kd (Colo205 [2]) [nM]	Binder
80.2	67.9	42.7	53.3	–	FG129 mAb (mouse FG129/29 IgG1 kappa) (antibody, Murine IgG1k from a hybridoma; It recognises the glycans sialyl-di-Lewis a, sialyl-Lewis a-x and mono-sialyl-Lewis a on glycoproteins; also called mAb FG129; F129/29) heavy: EVQLVESGGGLVQPKGSLKLSCAASGFTFNTYAMNWVRQAPGKGLEWVARIRSKSNNYATYYADSVKDRFTISRDDSQSMLYLQMNNLKKEDTAMYYCVGYGSGGNYWGQGTSVTVSSAKTTPPSVYPLAPGSAAQTNSMVTLGCLVKGYFPEPVTVTWNSGSLSSGVHTFPAVLESDLYTLSSSVTVPSSPRPSETVTCNVAHPASSTKVDKKIVPRDCGCKPCICTVPEVSSVFIFPPKPKDVLTITLTPKVTCVVVDISKDDPEVQFSWFVDDVEVHTAQTQPREEQFNSTFRSVSELPIMHQDWLNGKEFKCRVNSAAFPAPIEKTISKTKGRPKAPQVYTIPPPKEQMAKDKVSLTCMITDFFPEDITVEWQWNGQPAENYKNTQPIMNTNGSYFVYSKLNVQKSNWEAGNTFTCSVLHEGLHNHHTEKSLSHSPGK light: DIVMTQSPSSLTVTAGEKVTMSCKSSQSLLNSGNQKNYLTWYQQKPGQPPKVLIYWASTRESGVPDRFTGSGSGTDFTLTISSVQAEDLAVYYCQNDYSSPFTFGSGTKLEIKRADAAPTVSIFPPSSEQLTSGGASVVCFLNNFYPKDINVKWKIDGSERQNGVLNSWTDQDSKDSTYSMSSTLTLTKDEYERHNSYTCEATHKTSTSPIVKSFNRNEC
118	110	15.3	57.3	–	CH129 (chimeric FG129, mouse variable regions on human IgG1/kappa constant regions) (antibody, Expressed in CHO-S or HEK293 cells and purified on protein G) heavy: not shown light: DIVMTQSPSSLTVTAGEKVTMSCKSSQSLLNSGNQKNYLTWYQQKPGQPPKVLIYWASTRESGVPDRFTGSGSGTDFTLTISSVQAEDLAVYYCQNDYSSPFTFGSGTKLEIKRTVAAPSVFIFPPSDEQLKSGTASVVCLLNNFYPREAKVQWKVDNALQSGNSQESVTEQDSKDSTYSLSSTLTLSKADYEKHKVYACEVTHQGLSSPVTKSFNRGEC
–	–	–	–	377	FG129-scFv (scFv, Order is leader, VH, 3xGGGGS, VL, 6xAla, 6xHis; The leader is left out as secreted from Expi293 cells; also called scFv129) scFv: EVQLVESGGGLVQPKGSLKLSCAASGFTFNTYAMNWVRQAPGKGLEWVARIRSKSNNYATYYADSVKDRFTISRDDSQSMLYLQMNNLKKEDTAMYYCVGYGSGGNYWGQGTSVTVSGGGGSGGGGSGGGGSDIVMTQSPSSLTVTAGEKVTMSCKSSQSLLNSGNQKNYLTWYQQKPGQPPKVLIYWASTRESGVPDRFTGSGSGTDFTLTISSVQAEDLAVYYCQNDYSSPFTFGSGTKLEIKRAAAAAAHHHHHH
